B1: Receptor-interacting serine/threonine-protein kinase 2, residues 438 to 518; numbered along this chain, O43353 (parent)
chain: QWIQSKREDIVNQMTEACLNQSLDALLSRDLIMKEDYELVSTKPTRTSKVRQLLDTTDIQGEEFAKVIVQKLKDNKQMGLQ

± gives the uncertainty stated by the source.

This data set covers variants of B1. The data set is described as follows: abundance fitness (aPCA) (normalised: wild type 0, dead -1); higher = more abundant; growth selection in yeast, the domain comes from the species named. The following applies: Homo sapiens.
As to QWIQSKRADIVNQMTEACLNQSLDALLSRDLIMKEDYELVSTKPTRTSKVRQLLDTTDIQGEEFAKVIVQKLKDNKQMGLQ [E8A], the abundance fitness was -0.367 ± 0.076. The result for QRIQSKREDIVNQMTEACLNQSLDALLSRDLIMKEDYELVSTKPTRTSKVRQLLDTTDIQGEEFAKVIVQKLKDNKQMGLQ [W2R] reads -0.41 ± 0.088; that for QTIQSKREDIVNQMTEACLNQSLDALLSRDLIMKEDYELVSTKPTRTSKVRQLLDTTDIQGEEFAKVIVQKLKDNKQMGLQ [W2T], -0.609 ± 0.24. With QQIQSKREDIVNQMTEACLNQSLDALLSRDLIMKEDYELVSTKPTRTSKVRQLLDTTDIQGEEFAKVIVQKLKDNKQMGLQ [W2Q] the figure was -0.411 ± 0.14. QDIQSKREDIVNQMTEACLNQSLDALLSRDLIMKEDYELVSTKPTRTSKVRQLLDTTDIQGEEFAKVIVQKLKDNKQMGLQ [W2D]: the abundance fitness was -0.232 ± 0.31.

Take QNIQSKREDIVNQMTEACLNQSLDALLSRDLIMKEDYELVSTKPTRTSKVRQLLDTTDIQGEEFAKVIVQKLKDNKQMGLQ [W2N]: the abundance fitness was -0.196 ± 0.2. The result for QMIQSKREDIVNQMTEACLNQSLDALLSRDLIMKEDYELVSTKPTRTSKVRQLLDTTDIQGEEFAKVIVQKLKDNKQMGLQ [W2M] reads -0.4 ± 0.12.

On to QCIQSKREDIVNQMTEACLNQSLDALLSRDLIMKEDYELVSTKPTRTSKVRQLLDTTDIQGEEFAKVIVQKLKDNKQMGLQ [W2C], for which the abundance fitness was -0.556 ± 0.18. Regarding QLIQSKREDIVNQMTEACLNQSLDALLSRDLIMKEDYELVSTKPTRTSKVRQLLDTTDIQGEEFAKVIVQKLKDNKQMGLQ [W2L], the abundance fitness was -0.45 ± 0.074.

For the variant QEIQSKREDIVNQMTEACLNQSLDALLSRDLIMKEDYELVSTKPTRTSKVRQLLDTTDIQGEEFAKVIVQKLKDNKQMGLQ [W2E], the abundance fitness is -0.438 ± 0.11. Regarding QHIQSKREDIVNQMTEACLNQSLDALLSRDLIMKEDYELVSTKPTRTSKVRQLLDTTDIQGEEFAKVIVQKLKDNKQMGLQ [W2H], the abundance fitness was -0.684 ± 0.24. The result for QKIQSKREDIVNQMTEACLNQSLDALLSRDLIMKEDYELVSTKPTRTSKVRQLLDTTDIQGEEFAKVIVQKLKDNKQMGLQ [W2K] reads -0.435 ± 0.14; that for QGIQSKREDIVNQMTEACLNQSLDALLSRDLIMKEDYELVSTKPTRTSKVRQLLDTTDIQGEEFAKVIVQKLKDNKQMGLQ [W2G], -0.546 ± 0.084; that for QVIQSKREDIVNQMTEACLNQSLDALLSRDLIMKEDYELVSTKPTRTSKVRQLLDTTDIQGEEFAKVIVQKLKDNKQMGLQ [W2V], -0.632 ± 0.1. As for QIIQSKREDIVNQMTEACLNQSLDALLSRDLIMKEDYELVSTKPTRTSKVRQLLDTTDIQGEEFAKVIVQKLKDNKQMGLQ [W2I], the abundance fitness was found to be 0.069 ± 0.43. With QWTQSKREDIVNQMTEACLNQSLDALLSRDLIMKEDYELVSTKPTRTSKVRQLLDTTDIQGEEFAKVIVQKLKDNKQMGLQ [I3T] the figure was -0.745 ± 0.42; with QWMQSKREDIVNQMTEACLNQSLDALLSRDLIMKEDYELVSTKPTRTSKVRQLLDTTDIQGEEFAKVIVQKLKDNKQMGLQ [I3M], -0.292 ± 0.17; with QWDQSKREDIVNQMTEACLNQSLDALLSRDLIMKEDYELVSTKPTRTSKVRQLLDTTDIQGEEFAKVIVQKLKDNKQMGLQ [I3D], -0.051 ± 0.34.

QWFQSKREDIVNQMTEACLNQSLDALLSRDLIMKEDYELVSTKPTRTSKVRQLLDTTDIQGEEFAKVIVQKLKDNKQMGLQ [I3F]: the abundance fitness is -0.771 ± 0.47. The result for QWPQSKREDIVNQMTEACLNQSLDALLSRDLIMKEDYELVSTKPTRTSKVRQLLDTTDIQGEEFAKVIVQKLKDNKQMGLQ [I3P] reads -0.194 ± 0.24; that for QWLQSKREDIVNQMTEACLNQSLDALLSRDLIMKEDYELVSTKPTRTSKVRQLLDTTDIQGEEFAKVIVQKLKDNKQMGLQ [I3L], -0.205 ± 0.091; that for QWGQSKREDIVNQMTEACLNQSLDALLSRDLIMKEDYELVSTKPTRTSKVRQLLDTTDIQGEEFAKVIVQKLKDNKQMGLQ [I3G], -0.87 ± 0.25. As to QWKQSKREDIVNQMTEACLNQSLDALLSRDLIMKEDYELVSTKPTRTSKVRQLLDTTDIQGEEFAKVIVQKLKDNKQMGLQ [I3K], the abundance fitness was -0.975 ± 0.38. With QWSQSKREDIVNQMTEACLNQSLDALLSRDLIMKEDYELVSTKPTRTSKVRQLLDTTDIQGEEFAKVIVQKLKDNKQMGLQ [I3S] the figure was -0.767 ± 0.22; with QWIVSKREDIVNQMTEACLNQSLDALLSRDLIMKEDYELVSTKPTRTSKVRQLLDTTDIQGEEFAKVIVQKLKDNKQMGLQ [Q4V], -0.756 ± 0.34. With QWIMSKREDIVNQMTEACLNQSLDALLSRDLIMKEDYELVSTKPTRTSKVRQLLDTTDIQGEEFAKVIVQKLKDNKQMGLQ [Q4M] the figure was 0.279 ± 0.29. The result for QWITSKREDIVNQMTEACLNQSLDALLSRDLIMKEDYELVSTKPTRTSKVRQLLDTTDIQGEEFAKVIVQKLKDNKQMGLQ [Q4T] reads 0.458 ± 0.5; that for QWIISKREDIVNQMTEACLNQSLDALLSRDLIMKEDYELVSTKPTRTSKVRQLLDTTDIQGEEFAKVIVQKLKDNKQMGLQ [Q4I], 0.135 ± 0.39; that for QWISSKREDIVNQMTEACLNQSLDALLSRDLIMKEDYELVSTKPTRTSKVRQLLDTTDIQGEEFAKVIVQKLKDNKQMGLQ [Q4S], 0.09 ± 0.15. For QWIGSKREDIVNQMTEACLNQSLDALLSRDLIMKEDYELVSTKPTRTSKVRQLLDTTDIQGEEFAKVIVQKLKDNKQMGLQ [Q4G], the abundance fitness was -0.685 ± 0.13. The result for QWIASKREDIVNQMTEACLNQSLDALLSRDLIMKEDYELVSTKPTRTSKVRQLLDTTDIQGEEFAKVIVQKLKDNKQMGLQ [Q4A] reads -0.078 ± 0.12.

Regarding QWIRSKREDIVNQMTEACLNQSLDALLSRDLIMKEDYELVSTKPTRTSKVRQLLDTTDIQGEEFAKVIVQKLKDNKQMGLQ [Q4R], the abundance fitness was -0.045 ± 0.1. The result for QWIPSKREDIVNQMTEACLNQSLDALLSRDLIMKEDYELVSTKPTRTSKVRQLLDTTDIQGEEFAKVIVQKLKDNKQMGLQ [Q4P] reads -0.923 ± 0.35. The result for QWIFSKREDIVNQMTEACLNQSLDALLSRDLIMKEDYELVSTKPTRTSKVRQLLDTTDIQGEEFAKVIVQKLKDNKQMGLQ [Q4F] reads -0.166 ± 0.15.

The values above are taken from the Human Domainome abundance scans (Beltran et al. 2025).
